Molecular target: Klf4 ZnF1-3 DNA-binding domain (mouse, UniProt Q60793 396-483)
Assay: X-ray crystallography (1.85 A); 3 Zn2+; FP: 20 mM Tris-HCl pH 7.5, 150 mM NaCl, 5% (v/v) glycerol, 0.5 mM TCEP, ~22 C; probe 10 nM (WT) or 1 nM (E446A)
Conditions: protein: recombinant; tags: GST tag removed; N-terminal GPLGS left; blunt

Chain of Klf4 ZnF1-3 DNA-binding domain (Q60793 396-483): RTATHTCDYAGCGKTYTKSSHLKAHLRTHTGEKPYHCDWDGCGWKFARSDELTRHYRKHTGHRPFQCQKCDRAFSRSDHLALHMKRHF

B1: crystal 10-mer M/M (dsDNA)
DNA 1: GAGGCGTGGC
DNA 2: GCCACGCCTC
modifications: 5mC at position 5 of strand 1 and position 5 of strand 2
Q: Does B1 bind?
A: Result: binds
